In patent US20140294821A1:

Legend:
[1] = molecular target: human von Willebrand factor, FVIII-free, plasma derived (human) (UniProt P04275); test: SPR (BIAcore), hvWf as ligand, FVIII protein as analyte, N=5
[2] = molecular target: human von Willebrand factor, FVIII-free, plasma derived (human) (UniProt P04275); test: SPR (BIAcore), binding to vWF
[3] = molecular target: human von Willebrand factor, FVIII-free, plasma derived (human) (UniProt P04275); test: SPR (BIAcore), single-cycle kinetics 0.13-5.0 nM, plasma derived human vWF immobilized by amine coupling, 1:1 model, N=6

Kd [1] | koff [1] | kon [1] | fold difference in affinity (KD) against rBDD FVIII [2] | fold difference in on-rate against rBDD FVIII [2] | fold of KD against BDD FVIII alone [2] | Kd [3] | koff [3] | kon [3] | Substance
0.846 nM | 0.00114 s⁻¹ | 1.37e+06 M⁻¹ s⁻¹ |  |  |  |  |  |  | rBDD FVIII (recombinant B-domain deleted FVIII lacking Fc moieties) (from UniProt P00451 20-1667; P00451 1668-2351)
1.64 nM | 0.00125 s⁻¹ | 792000 M⁻¹ s⁻¹ | 2 fold | 2 fold | 2 fold | 0.34 nM | 0.00089 s⁻¹ | 2.6e+06 M⁻¹ s⁻¹ | rFVIIIFc (recombinant B-domain deleted human FVIII-Fc monomer hybrid), drug substance (from UniProt P00451 20-1667; P0DOX5 223-449) (Fc fusion)
